Tests used:
[1] = tested on: GST-DEK WT (Homo sapiens); assay: EMSA (agarose); details: 20 mM Hepes-KOH pH 7.6, 100 mM NaCl, 10 mM NaHSO3, 1 mM EDTA, 1 ug/ml BSA; 30 ul, 1 h at 37 C; 0.6% agarose gel in TBE. PAR overlay assays (poly(ADP-ribose) …); scale: DEK:DNA molar ratio at first detectable shift
[2] = tested on: GST-DEK PBD2-Mut2 (Homo sapiens); assay: EMSA (agarose); details: only slightly reduced; indistinguishable from WT at higher molar ratios; 20 mM Hepes-KOH pH 7.6, 100 mM NaCl, 10 mM NaHSO3, 1 mM EDTA, 1 ug/ml BSA; 30 ul, 1 h at 37 C; 0.6% agarose gel in TBE. PAR overlay assays (poly(ADP-ribose) …); scale: DEK:DNA molar ratio at first detectable shift

How did the binding signal [1] turn out when plasmid DNA (unnamed) was run?
Its binding signal is 84.

What about the binding signal [2] of the same substance?
The binding signal was 112.

Reference: PMC6692024
